Assay results taken from PMC6981200.

Target: streptavidin-binding peptide-tagged constitutively active form of TAZ (SBP-TAZ4SA) (human) (UniProt Q9GZV5)
Chain of UniProt Q9GZV5 (Q9GZV5 whole entry): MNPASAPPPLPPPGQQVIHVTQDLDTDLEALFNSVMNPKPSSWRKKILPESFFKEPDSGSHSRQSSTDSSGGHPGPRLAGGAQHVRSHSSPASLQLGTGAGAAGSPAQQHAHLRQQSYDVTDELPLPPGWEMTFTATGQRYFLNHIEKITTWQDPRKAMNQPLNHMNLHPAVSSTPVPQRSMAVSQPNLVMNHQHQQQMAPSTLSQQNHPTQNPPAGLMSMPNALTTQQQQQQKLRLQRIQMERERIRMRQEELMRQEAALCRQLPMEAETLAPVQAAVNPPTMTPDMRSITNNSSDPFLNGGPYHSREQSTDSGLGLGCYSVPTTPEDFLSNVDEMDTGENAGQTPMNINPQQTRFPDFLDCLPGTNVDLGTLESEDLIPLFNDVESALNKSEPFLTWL

Ccl19 promoter-driven luciferase activity in HEK293T cells co-transfected with TAZ4SA and p52 (p52 alone: 7.5-fold): 13.5 fold
Substance: Flag-p52 (from UniProt Q9WTK5 1-454) (natural protein)
